# Laboratory results reported in publication PMC6152312, “Structural Insight into the Recognition of r(UAG) by Musashi-1 RBD2, and Construction of a Model of Musashi-1 RBD1-2 Bound to the Minimum Target RNA”.
# Target: Msi1(109-200) (RBD2+) (mouse, UniProt Q61474 109-200)
# Test: NMR titration (15N-1H HSQC); 1:1 stoichiometry, slow exchange; 20 mM MES pH 6.0, 100 mM NaCl, 1 mM DTT, 5% D2O, 298 K (NMR sample; titration at 80 uM protein)
# Details: protein: recombinant; tags: N-terminal His6 cleaved by thrombin; extra GSHM at N-terminus; single strand
# Chain of Msi1(109-200) (RBD2+) (Q61474 109-200): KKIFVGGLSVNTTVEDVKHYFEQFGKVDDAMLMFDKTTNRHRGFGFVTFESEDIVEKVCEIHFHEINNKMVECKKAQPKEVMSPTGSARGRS
binder,measurement,value
GUAGU (ssRNA) [r(GUAGU)],binding result,binds
